According to the supplement of paper PMC10724198:
± gives the standard deviation of the averaged measurements.

Key:
Saccharomyces cerevisiae [1] = assay: protein stability index of tFT-peptide fusion (C-terminal peptide) (PSI (0-1 scale)); higher = more stable (slower turnover)
Procedure: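 MPS profiling in S. cerevisiae of the tFT-X12 degron library: putative degron peptides plus stable controls, 12 aa, fused to the C-terminus of a sfGFP-mCherry timer. Cells are FACS-sorted into 8 mCherry/sfGFP bins and deep-sequenced. PSI runs from 0 (unstable) to 1 (stable). Backgrounds are wild type, das1Δ and doa10Δ at 30 °C, and wild type, das1Δ, cdc34-1 and cdc53-1 at 37 °C; 2-3 technical replicates each.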

Saccharomyces cerevisiae [2] = assay: as above; settings: genetic background: wild type; temperature: 30 C
[3] = genetic background: cdc34-1, temperature: 37 C
[4] = genetic background: cdc53-1, temperature: 37 C
[5] = genetic background: das1 deletion, temperature: 30 C
[6] = genetic background: das1 deletion, temperature: 37 C
[7] = genetic background: doa10 deletion, temperature: 30 C
[8] = genetic background: wild type, temperature: 30 C
[9] = genetic background: wild type, temperature: 37 C
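Further: PSI is a weighted mean of sequencing reads over stability bins, variants kept only with over 10 reads, mCherry proximal and sfGFP distal, peptide attached via GGGS linker.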

Sequence	protein stability index (Saccharomyces cerevisiae [1]; [3])	protein stability index (Saccharomyces cerevisiae [1]; [4])	protein stability index (Saccharomyces cerevisiae [1]; [5])	protein stability index (Saccharomyces cerevisiae [1]; [6])	protein stability index (Saccharomyces cerevisiae [1]; [7])	protein stability index (Saccharomyces cerevisiae [1]; [8])	protein stability index (Saccharomyces cerevisiae [1]; [9])	protein stability index (Saccharomyces cerevisiae [2])
VLFLLLFVSRVA	0.2684 ± 0.0016	0.398 ± 0.017	0.259 ± 0.035	0.453 ± 0.016	0.203 ± 0.012	0.224 ± 0.03	0.381 ± 0.042	0.3312 ± 0.0014
QITIYPIPLARF	0.951 ± 0.015	0.937 ± 0.0099	0.807 ± 0.015	0.88 ± 0.0098	0.808 ± 0.027	0.867 ± 0.015	0.8924 ± 0.0076	0.79 ± 0.065
VVCFVVCGFYLG	0.235 ± 0.018	0.316 ± 0.021	0.261 ± 0.025	0.452 ± 0.011	0.224 ± 0.011	0.242 ± 0.051	0.428 ± 0.024	0.205 ± 0.055
FQLGLVFCVCSG	0.432 ± 0.0073	0.438 ± 0.022	0.258 ± 0.041	0.469 ± 0.0075	0.244 ± 0.0076	0.258 ± 0.026	0.453 ± 0.016	0.367 ± 0.022
TVERKMYWQRWG	0.666 ± 0.029	0.745 ± 0.025	0.641 ± 0.011	0.754 ± 0.01	0.1794 ± 0.00073	0.187 ± 0.0033	0.4975 ± 0.0044	0.391 ± 0.045
YFCVELSVFGFF	0.416 ± 0.018	0.546 ± 0.077	0.37 ± 0.046	0.48 ± 0.018	0.324 ± 0.02	0.358 ± 0.023	0.476 ± 0.033	0.4 ± 0.036
LCLLPVCLWDVG	0.451 ± 0.026	0.513 ± 0.016	0.447 ± 0.0076	0.501 ± 0.0082	0.453 ± 0.0074	0.439 ± 0.017	0.49 ± 0.0072	0.461 ± 0.023
LVLELYRFARFG	0.636 ± 0.03	0.7337 ± 0.0046	0.643 ± 0.0069	0.742 ± 0.015	0.2704 ± 0.00045	0.276 ± 0.043	0.532 ± 0.038	0.3197 ± 0.0012
VIRSIVSAYMIC	0.552 ± 0.043	0.649 ± 0.013	0.563 ± 0.013	0.6726 ± 0.0028	0.255 ± 0.0033	0.248 ± 0.02	0.334 ± 0.037	0.293 ± 0.051
YLFFHMVVLVVV	0.0358 ± 0.0027	0.0745 ± 0.0059	0.118 ± 0.043	0.182 ± 0.0041	0.0943 ± 0.019	0.105 ± 0.048	0.149 ± 0.019	0.157 ± 0.018
VFVMVLCALFYF	0.248 ± 0.034	0.282 ± 0.04	0.242 ± 0.032	0.38 ± 0.032	0.2436 ± 0.0014	0.236 ± 0.017	0.319 ± 0.015	0.279 ± 0.022
DIRLWISCTLWF	0.244 ± 0.019	0.361 ± 0.043	0.25 ± 0.029	0.425 ± 0.014	0.26 ± 0.0053	0.242 ± 0.025	0.37 ± 0.019	0.324 ± 0.013
FVSVWVFLVSSF	0.258 ± 0.025	0.381 ± 0.019	0.248 ± 0.032	0.457 ± 0.014	0.194 ± 0.017	0.225 ± 0.035	0.401 ± 0.039	0.312 ± 0.024
VVLCQVCVLWGW	0.0623 ± 0.011	0.202 ± 0.029	0.167 ± 0.031	0.252 ± 0.01	0.148 ± 0.0088	0.151 ± 0.029	0.229 ± 0.025	0.257 ± 0.016
GGIRLRVRFFVI	0.584 ± 0.061	0.658 ± 0.011	0.53 ± 0.026	0.6152 ± 0.0058	0.158 ± 0.0059	0.168 ± 0.023	0.236 ± 0.016	0.247 ± 0.019
GGSGGVSWRRVV	0.68 ± 0.034	0.735 ± 0.0088	0.654 ± 0.011	0.725 ± 0.01	0.223 ± 0.019	0.264 ± 0.018	0.546 ± 0.051	0.395 ± 0.022
LFIVTFIPVLFS	0.49 ± 0.064	0.545 ± 0.034	0.374 ± 0.016	0.623 ± 0.0088	0.41 ± 0.0081	0.384 ± 0.041	0.59 ± 0.08	0.494 ± 0.0074
CVLVLLLRLAFL	0.5506 ± 0.0053	0.5516 ± 0.0013	0.44 ± 0.032	0.5995 ± 0.0041	0.467 ± 0.027	0.434 ± 0.0093	0.561 ± 0.015	0.4885 ± 0.0022
VGVCGSSGRVGG	0.688 ± 0.03	0.7314 ± 0.0042	0.641 ± 0.014	0.718 ± 0.0032	0.643 ± 0.021	0.645 ± 0.012	0.717 ± 0.024	0.7 ± 0.025
VGRVIVIVVAGV	0.329 ± 0.012	0.395 ± 0.016	0.274 ± 0.036	0.4541 ± 0.0045	0.236 ± 0.0065	0.267 ± 0.028	0.423 ± 0.022	0.375 ± 0.033

Sequence	protein stability index (Saccharomyces cerevisiae [1]; [3])	protein stability index (Saccharomyces cerevisiae [1]; [4])	protein stability index (Saccharomyces cerevisiae [1]; [5])	protein stability index (Saccharomyces cerevisiae [1]; [6])	protein stability index (Saccharomyces cerevisiae [1]; [7])	protein stability index (Saccharomyces cerevisiae [1]; [8])	protein stability index (Saccharomyces cerevisiae [1]; [9])	protein stability index (Saccharomyces cerevisiae [2])
VERKLMTIYIKI	0.6106 ± 0.0052	0.6479 ± 0.003	0.451 ± 0.018	0.6806 ± 0.0061	0.492 ± 0.015	0.499 ± 0.063	0.6076 ± 0.00061	0.493 ± 0.005
DLRFAWLLSCFS	0.44 ± 0.017	0.47 ± 0.011	0.331 ± 0.034	0.501 ± 0.014	0.293 ± 0.006	0.334 ± 0.022	0.476 ± 0.0054	0.432 ± 0.015
LDTTSRSRAKIS	0.509 ± 0.031	0.6775 ± 0.0026	0.625 ± 0.022	0.718 ± 0.013	0.0782 ± 0.032	0.0968 ± 0.048	0.138 ± 0.021	0.164 ± 0.032
GCLGYTLSCFTY	0.563 ± 0.014	0.64 ± 0.038	0.525 ± 0.051	0.626 ± 0.0015	0.519 ± 0.019	0.51 ± 0.027	0.643 ± 0.015	0.401 ± 0.015
PPPPLATTSAPL	0.687 ± 0.046	0.74266 ± 0.0006	0.661 ± 0.0092	0.7118 ± 0.0031	0.668 ± 0.029	0.665 ± 0.015	0.6919 ± 0.0013	0.719 ± 0.04
RGYATTALHWVS	0.668 ± 0.038	0.7695 ± 0.0075	0.6757 ± 0.002	0.7395 ± 0.0034	0.362 ± 0.0075	0.4 ± 0.022	0.596 ± 0.015	0.486 ± 0.019
FLFCMIFIFRCF	0.216 ± 0.011	0.196 ± 0.026	0.233 ± 0.031	0.339 ± 0.025	0.203 ± 0.025	0.165 ± 0.015	0.252 ± 0.022	0.276 ± 0.1
DILCGRCMIVGA	0.592 ± 0.045	0.573 ± 0.023	0.415 ± 0.041	0.6044 ± 0.0056	0.393 ± 0.0059	0.422 ± 0.011	0.555 ± 0.013	0.495 ± 0.018
GGWRVLHAWVAV	0.651 ± 0.045	0.682 ± 0.012	0.546 ± 0.019	0.6866 ± 0.00041	0.278 ± 0.0058	0.328 ± 0.023	0.553 ± 0.023	0.463 ± 0.015
WSNICFWCGVWS	0.685 ± 0.027	0.826 ± 0.011	0.673 ± 0.038	0.815 ± 0.033	0.356 ± 0.0059	0.39 ± 0.024	0.6615 ± 0.0049	0.458 ± 0.057
LFFGLCFVFFGF	0.384 ± 0.022	0.459 ± 0.0067	0.362 ± 0.032	0.48 ± 0.0058	0.407 ± 0.015	0.366 ± 0.013	0.4582 ± 0.0013	0.378 ± 0.046
GRGLGHWWTVRT	0.672 ± 0.03	0.756 ± 0.024	0.698 ± 0.017	0.741 ± 0.015	0.689 ± 0.013	0.704 ± 0.0092	0.716 ± 0.012	0.751 ± 0.033
FTFPLPPSLLLV	0.378 ± 0.023	0.389 ± 0.0036	0.322 ± 0.021	0.456 ± 0.011	0.2603 ± 0.00082	0.233 ± 0.028	0.37 ± 0.0071	0.347 ± 0.017
HGVYSVLRFFFC	0.664 ± 0.038	0.723 ± 0.021	0.659 ± 0.011	0.671 ± 0.03	0.329 ± 0.0035	0.365 ± 0.017	0.579 ± 0.023	0.453 ± 0.0086
GLVCPWLIVRFV	0.303 ± 0.051	0.3 ± 0.065	0.372 ± 0.036	0.5 ± 0.0067	0.161 ± 0.022	0.136 ± 0.0078	0.216 ± 0.03	0.2 ± 0.015
TRVVSPNVILMC	0.6679 ± 0.00086	0.7417 ± 0.0073	0.61 ± 0.027	0.725 ± 0.019	0.5135 ± 0.0048	0.526 ± 0.022	0.673 ± 0.009	0.505 ± 0.017
CFATTCLRCKWV	0.692 ± 0.038	0.738 ± 0.035	0.645 ± 0.033	0.739 ± 0.028	0.425 ± 0.011	0.459 ± 0.022	0.631 ± 0.027	0.484 ± 0.014
IHCLSIVVHGLS	0.527 ± 0.045	0.569 ± 0.047	0.471 ± 0.024	0.588 ± 0.0099	0.48 ± 0.016	0.475 ± 0.019	0.563 ± 0.027	0.499 ± 0.043
LWNFYELVVYAM	0.046 ± 0.016	0.0695 ± 0.046	0.159 ± 0.035	0.153 ± 0.04	0.103 ± 0.021	0.121 ± 0.019	0.114 ± 0.0054	0.212 ± 0.018
